Data reported in PMC11785957 (2025).
Where no end group is shown, it is not given here.

Biological target: human TLR3 ectodomain (Wuxi Biologics, C-terminal His and Avi tags) (human, UniProt O15455 24-704, biotinylated (for yeast display))
Assay: BLI

Kd [nM] | Binder
440 | minibinder 7 (designed binder, also: biotinylated (site not given here)) SAMERYVKVLLRTAELAREAGDPEDVRKALEKAELVARILHNEELKEEIREVEEEL
1200 | minibinder 8 (designed binder, also: biotinylated (site not given here)) SLEEEAERVVEELVKEFNLSETQEIALRRYAEFAAKAGASEEVIEELLRRVAERLS
